One molecule from patent US20240376224A1 (University of California, published 2024) can be followed below.

Experiment [1] addresses T1, soluble CUB1 (NTF) used as competitor (human, UniProt Q9H5V8 30-367, limits assumed).
T1 sequence: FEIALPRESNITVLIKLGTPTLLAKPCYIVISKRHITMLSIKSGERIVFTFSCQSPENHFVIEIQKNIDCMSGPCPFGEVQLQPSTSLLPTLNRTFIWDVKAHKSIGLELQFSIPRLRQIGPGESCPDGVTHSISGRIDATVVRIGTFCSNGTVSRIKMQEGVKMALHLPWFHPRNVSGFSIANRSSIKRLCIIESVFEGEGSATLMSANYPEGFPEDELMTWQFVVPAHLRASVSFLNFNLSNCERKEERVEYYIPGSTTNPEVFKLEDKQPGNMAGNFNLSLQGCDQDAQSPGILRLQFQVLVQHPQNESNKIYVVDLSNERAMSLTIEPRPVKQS
Kind of experiment: flow cytometry competition: CUB1-His (NTF) titrated against 100, 50 or 0 nM IgG CL03 on cleaved CDCP1 positive cells. The protocol: To further evaluate the recognition of cleaved CDCP1 on cancer cells by CL03, a competition assay was performed to evaluate whether soluble CUB1 (NTF) could compete with the binding of CL03 on cleaved CDCP1 positive cells. […] Primary Ab (CL03 IgG) and different concentrations of CUB1 (NTF) were added to cells for 30 minutes at 4° C. Bound Abs were detected with addition of AlexaFluor-488 conjugated Goat anti-human IgG, F(ab′)2 fragment specific (Jackson ImmunoResearch: 1:1000). Cells were washed 3× with PBS+3% BSA and fluorescence was quantified using a CytoFLEX (Beckman Coulter) flow cytometer. All flow cytometry data analysis was performed using FlowJo software and Prism software (GraphPad).
(In general: A flow cytometer gives signals particle by particle.)

Experiment [2] concerns the target T2, cleaved human CDCP1 on the cell surface (endogenous, PDAC cells) (human) (UniProt Q9H5V8).
T2 sequence 1: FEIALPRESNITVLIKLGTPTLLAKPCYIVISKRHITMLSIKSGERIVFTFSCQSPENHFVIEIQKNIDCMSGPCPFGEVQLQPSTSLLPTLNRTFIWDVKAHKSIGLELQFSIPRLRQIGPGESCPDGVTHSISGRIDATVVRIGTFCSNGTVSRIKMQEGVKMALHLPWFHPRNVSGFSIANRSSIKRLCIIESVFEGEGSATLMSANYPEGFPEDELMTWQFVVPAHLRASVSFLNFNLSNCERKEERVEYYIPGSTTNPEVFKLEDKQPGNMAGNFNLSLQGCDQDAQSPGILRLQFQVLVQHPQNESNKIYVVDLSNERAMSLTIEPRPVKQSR
T2 sequence 2: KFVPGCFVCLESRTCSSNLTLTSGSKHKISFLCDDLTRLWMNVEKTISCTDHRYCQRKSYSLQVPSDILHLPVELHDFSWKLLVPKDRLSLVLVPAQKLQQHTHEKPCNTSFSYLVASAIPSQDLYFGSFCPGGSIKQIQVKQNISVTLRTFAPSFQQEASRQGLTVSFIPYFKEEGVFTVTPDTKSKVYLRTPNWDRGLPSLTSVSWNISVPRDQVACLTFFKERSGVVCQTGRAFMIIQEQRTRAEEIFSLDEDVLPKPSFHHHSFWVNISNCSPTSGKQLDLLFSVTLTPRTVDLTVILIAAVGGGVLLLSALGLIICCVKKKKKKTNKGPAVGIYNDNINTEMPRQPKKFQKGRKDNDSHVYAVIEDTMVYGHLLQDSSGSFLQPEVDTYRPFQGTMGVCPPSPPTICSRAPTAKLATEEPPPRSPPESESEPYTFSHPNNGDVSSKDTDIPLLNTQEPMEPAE
Nature of the experiment: dose-response flow cytometry on PL45 cells; PL45 cells.

The target of a further experiment is T3, His-CUB1 (human, UniProt Q9H5V8 30-367, limits assumed).
T3 construct: also called CUB1 (His-CUB1, soluble NTF); not shown: His tag
T3 sequence: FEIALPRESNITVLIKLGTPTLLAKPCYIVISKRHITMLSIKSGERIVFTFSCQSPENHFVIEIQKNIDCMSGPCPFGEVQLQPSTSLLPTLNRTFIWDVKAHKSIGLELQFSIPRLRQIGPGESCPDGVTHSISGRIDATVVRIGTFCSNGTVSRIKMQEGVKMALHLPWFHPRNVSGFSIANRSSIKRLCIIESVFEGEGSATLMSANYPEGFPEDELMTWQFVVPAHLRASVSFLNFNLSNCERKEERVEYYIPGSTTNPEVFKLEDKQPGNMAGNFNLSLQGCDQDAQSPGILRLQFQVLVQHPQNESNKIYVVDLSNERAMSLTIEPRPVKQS
Kind of experiment: sandwich ELISA, CL03 as capture antibody, antigen titrated (ng/mL), anti-CDCP1 polyclonal antibody for detection. As for the experimental part:
(§1) CUB1 N-terminal fragment (NTF) is present only in human serum. Since CL03 binds to an epitope on CUB1 domain that is exposed upon proteolysis, CUB1 (NTF) would serve as a sink to CL03 that decreases the viable concentration of CL03 on tumor site if it binds to CUB1 only in human serum. To further investigate the binding mechanism of CL03, an ELISA experiment was performed in which the binding of CL03 to CUB1 in human serum was evaluated. ELISA assays were performed as generally described in Example 1. Briefly, either IgG CL03 or 4A06 was used as the capture antibody; the target antigens evaluated were as presented in Table 9 below; and an anti-CDCP1 polyclonal Ab was used as the detection antibody (R&D: Cat. #AF2666).
For orientation: An ELISA detects its analyte on a solid surface through an enzyme-linked reagent.

Another experiment has as its target T4, His-TEV-CUB1 (human, UniProt Q9H5V8 30-367).
T4 construct: also called CUB1 (His-TEV-CUB1, soluble NTF); not shown: His tag and TEV site
T4 sequence: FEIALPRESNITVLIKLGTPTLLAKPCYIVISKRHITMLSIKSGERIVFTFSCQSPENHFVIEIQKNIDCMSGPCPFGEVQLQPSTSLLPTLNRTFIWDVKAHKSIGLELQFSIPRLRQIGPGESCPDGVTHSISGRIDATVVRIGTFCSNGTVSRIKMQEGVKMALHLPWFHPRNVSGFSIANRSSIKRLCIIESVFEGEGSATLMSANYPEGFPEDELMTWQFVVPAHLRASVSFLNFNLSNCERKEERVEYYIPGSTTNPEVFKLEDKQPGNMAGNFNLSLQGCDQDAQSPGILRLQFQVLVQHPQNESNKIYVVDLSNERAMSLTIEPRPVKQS
The experiment is described as above. As for the experimental part:
as §1

B1: CL03 IgG (antibody, V domains shown)
VH: EVQLVESGGGLVQPGGSLRLSCAASGFNFSSYSIHWVRQAPGKGLEWVASIYPYSGSTYYADSVKGRFTISADTSKNTAYLQMNSLRAEDTAVYYCARQSHSYYSHTWWVSYGMDYWGQGTLVTVSS
VL: DIQMTQSPSSLSASVGDRVTITCRASQSVSSAVAWYQQKPGKAPKLLIYSASSLYSGVPSRFSGSRSGTDFTLTISSLQPEDFATYYCQQSGQRPITFGQGTKVEIKR
notes: also called IgG CL03
One may read the EC50 as the concentration at which the effect is half-maximal. A high value points to a need for much substance. With B1, the binding result in experiment [1] is “no binding (tested: about 800 nM)”; in the experiment with His-CUB1, “no binding (tested: 1000 ng/mL)”; with His-TEV-CUB1, “no binding (tested: 1000 ng/mL)”. Besides, the EC50 in experiment [2] is 20.7 nM.
